B1: RNA-binding protein FUS (Homo sapiens), P35637 (parent)
chain: MASNDYTQQATQSYGAYPTQPGQGYSQQSSQPYGQQSYSGYSQSTDTSGYGQSSYSSYGQSQNTGYGTQSTPQGYGSTGGYGSSQSSQSSYGQQSSYPGYGQQPAPSSTSGSYGSSSQSSSYGQPQSGSYSQQPSYGGQQQSYGQQQSYNPPQGYGQQNQYNSSSGGGGGGGGGGNYGQDQSSMSSGGGSGGGYGNQDQSGGGGSGGYGQQDRGGRGRGGSGGGGGGGGGGYNRSSGGYEPRGRGGGRGGRGGMGGSDRGGFNKFGGPRDQGSRHDSEQDNSDNNTIFVQGLGENVTIESVADYFKQIGIIKTNKKTGQPMINLYTDRETGKLKGEATVSFDDPPSAKAAIDWFDGKEFSGNPIKVSFATRRADFNRGGGNGRGGRGRGGPMGRGGYGGGGSGGGGRGGFPSGGGGGGGQQRAGDWKCPNPTCENMNFSWRNECNQCKAPKPDGPGGGPGGSHMGGNYGDDRRGGRGGYDRGGYRGRGGDRGGFRGGRGGGDRGGFGPGKMDSRGEHRQDRRERPY

Variants of: B1
Settings: with smn_mouse Smn1, P97801
smn_mouse Smn1, P97801, sequence (P97801 whole entry): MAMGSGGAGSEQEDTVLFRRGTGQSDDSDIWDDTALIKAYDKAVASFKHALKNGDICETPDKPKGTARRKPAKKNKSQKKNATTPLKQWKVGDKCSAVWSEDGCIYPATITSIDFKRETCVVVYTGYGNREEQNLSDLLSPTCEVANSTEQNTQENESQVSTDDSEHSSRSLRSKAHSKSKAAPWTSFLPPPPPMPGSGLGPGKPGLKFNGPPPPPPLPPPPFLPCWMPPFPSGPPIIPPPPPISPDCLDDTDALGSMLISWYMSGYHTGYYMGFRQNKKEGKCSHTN

| Variant | effect of a mutation on the interaction |
| --- | --- |
| MASNDYTQQATQSYGAYPTQPGQGYSQQSSQPYGQQSYSGYSQSTDTSGYGQSSYSSYGQSQNTGYGTQSTPQGYGSTGGYGSSQSSQSSYGQQSSYPGYGQQPAPSSTSGSYGSSSQSSSYGQPQSGSYSQQPSYGGQQQSYGQQQSYNPPQGYGQQNQYNSSSGGGGGGGGGGNYGQDQSSMSSGGGSGGGYGNQDQSGGGGSGGYGQQDRGGRGRGGSGGGGGGGGGGYNRSSGGYEPRGRGGGRGGRGGMGGSDRGGFNKFGGPRDQGSRHDSEQDNSDNNTIFVQGLGENVTIESVADYFKQIGIIKTNKKTGQPMINLYTDRETGKLKGEATVSFDDPPSAKAAIDWFDGKEFSGNPIKVSFATRRADFNRGGGNGRGGRGRGGPMGRGGYGGGGSGGGGRGGFPSGGGGGGGQQRAGDWKCPNPTCENMNFSWRNECNQCKAPKPDGPGGGPGGSHMGGNYGDDRRGGRGGYDRGGYRGRGGDRGGFRGGRGGGDRGGFGPGKMDSRGEHRQDCRERPY [R521C] | increasing interaction strength |
| MASNDYTQQATQSYGAYPTQPGQGYSQQSSQPYGQQSYSGYSQSTDTSGYGQSSYSSYGQSQNTGYGTQSTPQGYGSTGGYGSSQSSQSSYGQQSSYPGYGQQPAPSSTSGSYGSSSQSSSYGQPQSGSYSQQPSYGGQQQSYGQQQSYNPPQGYGQQNQYNSSSGGGGGGGGGGNYGQDQSSMSSGGGSGGGYGNQDQSGGGGSGGYGQQDRGGRGRGGSGGGGGGGGGGYNRSSGGYEPRGRGGGRGGRGGMGGSDRGGFNKFGGPRDQGSRHDSEQDNSDNNTIFVQGLGENVTIESVADYFKQIGIIKTNKKTGQPMINLYTDRETGKLKGEATVSFDDPPSAKAAIDWFDGKEFSGNPIKVSFATRRADFNRGGGNGRGGRGRGGPMGRGGYGGGGSGGGGRGGFPSGGGGGGGQQRAGDWKCPNPTCENMNFSWRNECNQCKAPKPDGPGGGPGGSHMGGNYGDDRRGGRGGYDRGGYRGRGGDRGGFRGGRGGGDRGGFGPGKMDSRGEHRQDRRERLY [P525L] | increasing interaction strength |
| MASNDYTQQATQSYGAYPTQPGQGYSQQSSQPYGQQSYSGYSQSTDTSGYGQSSYSSYGQSQNTGYGTQSTPQGYGSTGGYGSSQSSQSSYGQQSSYPGYGQQPAPSSTSGSYGSSSQSSSYGQPQSGSYSQQPSYGGQQQSYGQQQSYNPPQGYGQQNQYNSSSGGGGGGGGGGNYGQDQSSMSSGGGSGGGYGNQDQSGGGGSGGYGQQDRGGRGRGGSGGGGGGGGGGYNRSSGGYEPRGRGGGRGGRGGMGGSDRGGFNKFGGPRDQGSRHDSEQDNSDNNTIFVQGLGENVTIESVADYFKQIGIIKTNKKTGQPMINLYTDRETGKLKGEATVSFDDPPSAKAAIDWFDGKEFSGNPIKVSFATRRADFNRGGGNGRGGRGRGGPMGRGGYGGGGSGGGGRGGFPSGGGGGGGQQRAGDWKCPNPTCENMNFSWRNECNQCKAPKPDGPGGGPGGSHMGGNYGDDRRGGRGGYDRGGYRGRGGDRGGFRGGRGGGDRGGFGPGKMDSRGEHRQDHRERPY [R521H] | increasing interaction strength |

Variants of: B1
Settings: with smn_mouse Smn1, P97801
Remark: another data set of the same source

| Variant | effect of a mutation on the interaction |
| --- | --- |
| MASNDYTQQATQSYGAYPTQPGQGYSQQSSQPYGQQSYSGYSQSTDTSGYGQSSYSSYGQSQNTGYGTQSTPQGYGSTGGYGSSQSSQSSYGQQSSYPGYGQQPAPSSTSGSYGSSSQSSSYGQPQSGSYSQQPSYGGQQQSYGQQQSYNPPQGYGQQNQYNSSSGGGGGGGGGGNYGQDQSSMSSGGGSGGGYGNQDQSGGGGSGGYGQQDRGGRGRGGSGGGGGGGGGGYNRSSGGYEPRGRGGGRGGRGGMGGSDRGGFNKFGGPRDQGSRHDSEQDNSDNNTIFVQGLGENVTIESVADYFKQIGIIKTNKKTGQPMINLYTDRETGKLKGEATVSFDDPPSAKAAIDWFDGKEFSGNPIKVSFATRRADFNRGGGNGRGGRGRGGPMGRGGYGGGGSGGGGRGGFPSGGGGGGGQQRAGDWKCPNPTCENMNFSWRNECNQCKAPKPDGPGGGPGGSHMGGNYGDDRRGGRGGYDRGGYRGRGGDRGGFRGGRGGGDRGGFGPGKMDSRGEHRQDCRERPY [R521C] | with no effect |

Reference: IntAct's records for PubMed 23681068
